From patent US20080248034A1 (MORPHOTEK, published 2008)

Target: tetanus toxoid (TT) (UniProt P04958 2-1315)
Experiment: antigen-specific ELISA, coated at 1:500 dilution (FIG. 4B)

Sequence of tetanus toxoid (TT) (P04958 2-457 limits assumed, chain 1 of 2): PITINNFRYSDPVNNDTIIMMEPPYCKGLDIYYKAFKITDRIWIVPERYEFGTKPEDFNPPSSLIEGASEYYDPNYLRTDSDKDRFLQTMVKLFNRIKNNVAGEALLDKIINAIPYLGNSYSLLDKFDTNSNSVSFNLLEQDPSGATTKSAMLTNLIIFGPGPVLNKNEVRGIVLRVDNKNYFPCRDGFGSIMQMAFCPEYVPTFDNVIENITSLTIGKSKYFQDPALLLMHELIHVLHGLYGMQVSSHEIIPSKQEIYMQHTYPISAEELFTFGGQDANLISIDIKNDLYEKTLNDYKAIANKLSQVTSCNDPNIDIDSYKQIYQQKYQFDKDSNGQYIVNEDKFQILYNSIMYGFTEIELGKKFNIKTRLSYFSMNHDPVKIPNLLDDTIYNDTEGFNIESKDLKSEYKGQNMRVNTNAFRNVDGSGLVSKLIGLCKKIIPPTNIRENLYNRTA
Sequence of tetanus toxoid (TT) (P04958 458-1315 limits assumed, chain 2 of 2): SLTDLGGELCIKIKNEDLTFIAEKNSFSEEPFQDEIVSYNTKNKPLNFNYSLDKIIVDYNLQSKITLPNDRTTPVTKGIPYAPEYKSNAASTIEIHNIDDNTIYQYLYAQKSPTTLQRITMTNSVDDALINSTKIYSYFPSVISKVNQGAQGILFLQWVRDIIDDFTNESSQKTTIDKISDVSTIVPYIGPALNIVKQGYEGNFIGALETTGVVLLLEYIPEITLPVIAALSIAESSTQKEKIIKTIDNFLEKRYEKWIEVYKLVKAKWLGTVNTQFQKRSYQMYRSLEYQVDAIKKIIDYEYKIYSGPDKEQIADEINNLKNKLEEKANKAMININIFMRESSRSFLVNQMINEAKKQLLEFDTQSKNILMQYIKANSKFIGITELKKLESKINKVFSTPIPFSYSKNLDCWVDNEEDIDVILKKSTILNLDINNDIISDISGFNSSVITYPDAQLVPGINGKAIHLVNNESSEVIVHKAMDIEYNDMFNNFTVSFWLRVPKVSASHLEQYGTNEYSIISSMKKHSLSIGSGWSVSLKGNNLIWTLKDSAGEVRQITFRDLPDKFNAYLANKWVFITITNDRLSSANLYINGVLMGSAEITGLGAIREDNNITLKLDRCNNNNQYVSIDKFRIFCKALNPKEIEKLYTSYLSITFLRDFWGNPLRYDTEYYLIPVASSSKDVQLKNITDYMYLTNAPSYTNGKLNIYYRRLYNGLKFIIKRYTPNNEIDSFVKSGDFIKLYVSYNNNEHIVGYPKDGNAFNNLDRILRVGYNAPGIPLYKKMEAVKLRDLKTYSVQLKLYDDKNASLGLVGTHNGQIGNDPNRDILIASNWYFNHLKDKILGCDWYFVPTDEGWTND

B1: Fc-TEM1 (soluble recombinant endosialin: full-length TEM1 extracellular domain fused to monomeric murine IgG2b Fc) (Fc fusion, human)
chain: QDPWAAEPRAACGPSSCYALFPRRRTFLEAWRACRELGGDLATPRTPEEAQRVDSLVGAGPASRLLWIGLQRQARQCQLQRPLRGFTWTTGDQDTAFTNWAQPASGGPCPAQRCVALEASGEHRWLEGSCTLAVDGYLCQFGFEGACPALQDEAGQAGPAVYTTPFHLVSTEFEWLPFGSVAAVQCQAGRGASLLCVKQPEGGVGWSRAGPLCLGTGCSPDNGGCEHECVEEVDGHVSCRCTEGFRLAADGRSCEDPCAQAPCEQQCEPGGPQGYSCHCRLGFRPAEDDPHRCVDTDECQIAGVCQQMCVNYVGGFECYCSEGHELEADGISCSPAGAMGAQASQDLGDELLDDGEDEEDEDEAWKAFNGGWTEMPGILWMEPTQPPDFALAYRPSFPEDREPQIPYPEPTWPPPLSAPRVPYHSSVLSVTRPVVVSATHPTLPSAHQPPVIPATHPALSRDHQIPVIAANYPDLPSAYQPGILSVSHSAQPPAHQPPMISTKYPELFPAHQSPMFPDTRVAGTQTTTHLPGIPPNHAPLVTTLGAQLPPQAPDALVLRTQATQLPIIPTAQPSLTTTSRSPVSPAHQISVPAATQPAALPTLLPSQSPTNQTSPISPTHPHSKAPQIPREDGPSPKLALWLPSPAPTAAPTALGEAGLAEHSQRDDRWLDDDD
notes: extracellular domain; Monomeric secreted fusion protein made in CHO cells; also called TEM1-Fcγ; not shown: murine IgG2b Fcγ domain (hinge through CH3), modified: the four cysteine residues responsible for inter-heavy chain disu
**Q.** Does B1 bind?
**A.** no binding (tested: 5, 10, 50 ug/ml)
